Data from patent US20140105855A1 (published 2014).

T1: preformed IL-17RB-IL-25 complex (IL-25 captured by immobilised IL-17RB) (UniProt Q9NRM6 18-292; Q9H293 33-177, biotin on the C-terminal BirA ligase tag)
T1 construct: extracellular domain;mature; One receptor with one cytokine dimer, assembled stepwise on the SPR chip; not shown: C-terminal BirA ligase tag
T1 sequence 1: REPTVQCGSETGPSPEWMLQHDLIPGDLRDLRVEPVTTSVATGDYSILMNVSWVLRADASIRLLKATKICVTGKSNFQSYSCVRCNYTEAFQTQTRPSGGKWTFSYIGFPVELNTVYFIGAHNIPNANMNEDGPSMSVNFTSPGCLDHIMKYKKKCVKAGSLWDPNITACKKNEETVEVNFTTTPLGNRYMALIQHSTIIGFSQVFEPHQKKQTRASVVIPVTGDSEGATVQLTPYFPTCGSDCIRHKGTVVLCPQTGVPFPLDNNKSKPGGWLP
T1 sequence 2: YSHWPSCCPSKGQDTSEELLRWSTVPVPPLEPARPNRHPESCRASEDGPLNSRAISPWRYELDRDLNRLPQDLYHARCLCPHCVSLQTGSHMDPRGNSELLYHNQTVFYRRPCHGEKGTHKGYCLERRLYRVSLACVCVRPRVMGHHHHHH

B1: IL-17F (ligand, human)
chain: RKIPKVGHTFFQKPESCPPVPGGSMKLDIGIINENQRVSMSRNIESRSTSPWNYTVTWDPNRYPSEVVQAQCRNLGCINAQGKEDISMNSVPIQQETLVVRRKHQGCSVSFQLEKVLVTVGCTCVTPVIHHVQHHHHHH
notes: mature; For the crystal the His tag was removed with carboxypeptidase A and the complex was lysine-methylated; For SPR the cytokine carried the C-terminal hexa-His tag; also called IL-17F homodimer
B2: IL-17RB extracellular domain (receptor, UniProt Q9NRM6 18-292, looked up)
chain: T1 sequence 1
notes: extracellular domain; biotinylated when immobilised on the SPR chip
B3: IL-17RC extracellular domain (receptor, UniProt Q8NAC3 21-538, looked up)
chain: LERLVGPQDATHCSPVSLEPWGDEERLRVQFLAQQSLSLAPVTAATARTALSGLSGADGRREERGRGKSWVCLSLGGSGNTEPQKKGLSCRLWDSDILCLPGDIVPAPGPVLAPTHLQTELVLRCQKETDCDLCLRVAVHLAVHGHWEEPEDEEKFGGAADSGVEEPRNASLQAQVVLSFQAYPTARCVLLEVQVPAALVQFGQSVGSVVYDCFEAALGSEVRIWSYTQPRYEKELNHTQQLPDCRGLEVWNSIPSCWALPWLNVSADGDNVHLVLNVSEEQHFGLSLYWNQVQGPPKPRWHKNLTGPQIITLNHTDLVPCLCIQVWPLEPDSVRTNICPFREDPRAHQNLWQAARLQLLTLQSWLLDAPCSLPAEAALCWRAPGGDPCQPLVPPLSWENVTVDKVLEFPLLKGHPNLCVQVNSSEKLQLQECLWADSLGPLKDDVLLLETRGPQDNRSLCALEPSGCTSLPSKASTRAARLGEYLLQDLQSGQCLQLWDDDLGALWACPMDKYIHKR
notes: extracellular domain; biotinylated when immobilised
B4: IL-25 (ligand)
chain: T1 sequence 2
notes: mature; The form 'mature' is inferred from secretion; also called IL-17E

Columns and labels:
[1] = target: B3; assay: SPR, biotinylated receptor on streptavidin chip, cytokine injected
Description: (§1) Binding affinities were calculated via surface plasmon resonance (SPR) on a Biacore® T100 (GE Healthcare). C-terminally biotinylated IL-17 receptors were coupled to immobilized streptavidin on either an SA or CM4-sensor chip (GE Healthcare). An irrelevant, biotinylated protein was captured at equivalent immobilization densities to control flow cells. To measure the second receptor binding interaction, the cytokine was first captured to the immobilized receptor, followed by the second receptor injection. Low coupling densities (200-400 RU) and excess cytokine concentrations were used to optimize the number of cytokine homodimers bound to a single receptor. The surface was regenerated using 3 M MgCl2 between each cycle. For kinetic experiments, a flow rate of 50 μl/min was used. Data was analyzed using Biacore® T100 evaluation software Version 2.0 (GE Healthcare). Affinities are reported as the mean of at least two independent experiments±the standard error of the mean (s.e.m.).

[2] = target: T1, preformed IL-17RB-IL-25 complex (IL-25 …); assay: SPR; second receptor injected over IL-25 captured on immobilised IL-17RB
Description: (§2) To examiner whether IL-17RA may only specifically bind IL-25 once IL-25 is captured by IL-17RB, IL-17RB was immobilized on an SPR chip, IL-25 was passed over this chip and the affinity of IL-17RA for the IL-17RB-IL-25 complex was measured. […] At concentrations up to 50 μM, no interaction could be observed between IL-17RA and IL-25, or between the IL-17RB-IL-25 complex and a second IL-17RB molecule.
as §1

[3] = target: T2, preformed IL-17RA-IL-17A complex (IL-17A captured by immobilised IL-17RA) (human, UniProt Q16552 24-155); assay: SPR, second receptor injected over IL-17A captured on immobilised IL-17RA
T2 construct: mature; One receptor with one cytokine dimer, assembled stepwise on the SPR chip; not shown: C-terminal BirA ligase tag
Text: (§3) This strategy involved immobilizing one receptor on a SPR chip at a low coupling density in order to minimize possible homo-dimerization (e.g. cross-linking) of the receptors on the chip. The dimeric IL-17 cytokine was then captured by this receptor so that each receptor would be bound to one dimeric IL-17 ligand, leaving an exposed and accessible second receptor-binding site. The second receptor was subsequently passed over the preformed receptor-cytokine complexes to measure the affinity of the second receptor-binding event. In this fashion, the complex was assembled in a stepwise manner and each of the binding affinities was measured (FIG. 3).
as §1, with “The surface was regenerated using 3 M MgCl2 between each cycle. For kinetic experiments, a flow rate of 50 μl/min was used.” left out, “Affinities are reported as the mean of at least two independent experiments±the standard error of the mean (s.e.m.).” left out

[4] = target: T3, preformed IL-17RC-IL-17A complex (IL-17A captured by immobilised IL-17RC) (UniProt Q8NAC3 21-538; Q16552 24-155, biotin on the C-terminal BirA ligase tag); assay: SPR, second receptor injected over IL-17A captured on immobilised IL-17RC
T3 construct: extracellular domain;mature; One receptor with one cytokine dimer, assembled stepwise on the SPR chip; also called existing IL-17RC-IL-17A complex; not shown: C-terminal BirA ligase tag
Text: as §3
as §1, with “The surface was regenerated using 3 M MgCl2 between each cycle. For kinetic experiments, a flow rate of 50 μl/min was used.” left out, “Affinities are reported as the mean of at least two independent experiments±the standard error of the mean (s.e.m.).” left out

[5] = target: B2; assay: SPR, IL-25 captured on immobilised IL-17RB
Description: as §2, §1

T2 sequence (Q16552 other isoform, or with tags, fused parts or gaps): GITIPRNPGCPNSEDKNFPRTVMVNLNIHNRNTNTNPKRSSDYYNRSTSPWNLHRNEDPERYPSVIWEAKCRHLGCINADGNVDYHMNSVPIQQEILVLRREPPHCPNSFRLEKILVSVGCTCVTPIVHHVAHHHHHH
T3 sequence (Q16552 other isoform, or with tags, fused parts or gaps): as above

Binder: B1
- Kd [1]: 4.4 nM

Binder: B2
- binding result [2]: no binding (tested: up to 50 µM)

Binder: B3
- Kd [3]: 174 nM
- Kd [4]: 8000 nM

Binder: B4
- binding result [5]: binds
